{"source": "patent US12233115B2", "about": "“Long-acting parathyroid hormone” (Extend Biosciences, Inc., priority 2022, dated 2025)", "key": {"[1]": {"experiment": "Single dose pharmacokinetics of EXT607 in male rats", "conditions": "rat, in vivo, sc; rats, after subcutaneous dosing; read-out: terminal half-life", "description": "In a single dose pharmacokinetic study, EXT607 was formulated in PBS and groups of male rats (n=3) were dosed at a volume of 1 ml/kg as follows: Group 1, 100 μg/kg intravenous; Group 2, 30 μg/kg subcutaneous; Group 3, 100 μg/kg subcutaneous; Group 4, 300 μg/kg subcutaneous. Blood (0.25 mL) was collected via the jugular vein cannula, transferred into tubes containing K2EDTA, and kept on wet ice until processed for plasma. Blood samples were collected at 0 (predose), 0.083 (IV only), 0.25, 0.5, 1, 2, 4, 6, 8, 12, 24, 36, 48, 60 and 72 h postdose.\n(§1) Pharmacokinetic parameters were determined from the plasma concentration versus time data (Table 4) by a non-compartmental analysis with uniform weighting using Phoenix® WinNonlin® Version 6.3 (Certara L.P. (Pharsight), St. Louis, MO). The concentration versus time data were analyzed using the IV bolus or extravascular administration models. Best fit Lambda z ranges were used."}, "[2]": {"target": "T1, vitamin D binding protein (DBP) (Homo sapiens, UniProt P02774)", "T1 construct": "purchased Athens Research and Technology 16-16-070307", "T1 sequence (P02774 17-474)": "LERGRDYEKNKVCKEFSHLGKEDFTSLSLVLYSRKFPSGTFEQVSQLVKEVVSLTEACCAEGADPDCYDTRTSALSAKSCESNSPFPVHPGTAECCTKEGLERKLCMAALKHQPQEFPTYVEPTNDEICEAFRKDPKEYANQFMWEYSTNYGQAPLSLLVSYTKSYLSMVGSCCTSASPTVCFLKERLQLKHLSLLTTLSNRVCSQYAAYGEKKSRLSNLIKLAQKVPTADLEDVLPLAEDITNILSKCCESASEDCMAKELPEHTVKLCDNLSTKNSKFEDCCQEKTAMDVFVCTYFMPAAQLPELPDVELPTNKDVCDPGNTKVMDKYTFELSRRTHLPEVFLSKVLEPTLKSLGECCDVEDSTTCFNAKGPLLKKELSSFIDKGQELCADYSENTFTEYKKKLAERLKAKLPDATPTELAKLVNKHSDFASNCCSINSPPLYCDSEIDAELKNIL", "experiment": "Bio-layer interferometry binding of DBP to immobilized biotinylated conjugate", "conditions": "BLI steady state fit, DBP 0-75 μM; read-out: KD (binding equilibrium constant)", "description": "EXT607 and EXT608 were biotinylated using the EZ-Link Sulfo-NHS Biotin No-Weigh kit (Thermo Fisher Scientific, Waltham, MA, Catalog No. PIA39256). One mmol of biotin was reacted with 1 mmol of conjugate for 1 hour at room temperature. Unbound biotin was separated from biotinylated conjugate with a PD-10 desalting column (GE Lifesciences/Cytiva, Marlborough, MA, Catalog No. 17085101). The biotinylation ratio was quantitated using the Pierce Biotin Quantitation Kit (Thermo Fisher Scientific, Waltham, MA, Catalog No. PI28005). DBP was purchased from Athens Research and Technology (Athens, GA, Catalog No. 16-16-070307).\nAffinity measurements were collected on the Octet Red96 using prehydrated Dip and Read Streptavidin (SA) Biosensors (ForteBio, Fremont, CA, Catalog No. 18-5021). Reagents were diluted into phosphate buffered saline (PBS) with 0.02% Tween 20 in a black 96-well plate. Biotinylated EXT607 or EXT608 were prepared at a biotin concentration of 50 μg/mL and loaded onto the SA tips for 2 minutes. A buffer-only negative loading control was used to measure non-specific binding of DBP to the SA biosensors. A titration of DBP ranging from 0 to 75 μM was prepared. DBP was associated to the loaded tips for 5 minutes and dissociated with buffer solution for 10 minutes."}, "[3]": {"experiment": "Single dose pharmacokinetics of EXT607 in male cynomolgus monkeys", "format": "in vivo", "conditions": "cynomolgus monkey, in vivo, sc; NHP, after subcutaneous dosing; read-out: terminal half-life", "description": "In a single dose pharmacokinetic study, EXT607 was formulated in PBS and groups of male cynomolgus monkeys (n=3), weighing approximately 4 kg each, were dosed at a volume of 1 ml/kg as follows: Group 1, 20 μg/kg intravenous; Group 2, 7 μg/kg subcutaneous; Group 3, 20 μg/kg subcutaneous; Group 4, 70 μg/kg subcutaneous. Blood (1.0 mL) was collected via the jugular vein cannula, transferred into tubes containing K2EDTA, and kept on wet ice until processed for plasma. Blood samples were collected at 0 (pre-dose), 0.083 (IV only), 0.25, 0.5, 1, 2, 4, 6, 8, 12, 24, 36, 48, 60 and 72 h post-dose.\nas §1, with “5)” for “4)”\nAt low doses, the rate of subcutaneous absorption is slower than at high doses, leading to a lower Cmax and an overall flatter PK profile."}}, "data": [{"smiles": "C=C1CC[C@H](OCCCNC(=O)CCOCCOCCOCCOCCOCCOCCOCCOCCOCCOCCOCCOCCOCCOCCOCCOCCOCCOCCOCCOCCOCCOCCOCCOCCOCCOCCOCCOCCOCCOCCOCCOCCOCCOCCOCCOCCNC(=O)CCN2C(=O)CC(SC[C@H](NC(=O)[C@H](Cc3ccccc3)NC(=O)[C@H](CC(N)=O)NC(=O)[C@H](Cc3c[nH]cn3)NC(=O)[C@@H](NC(=O)[C@H](CC(=O)O)NC(=O)[C@H](CCC(N)=O)NC(=O)[C@H](CC(C)C)NC(=O)[C@H](CCCCN)NC(=O)[C@H](CCCCN)NC(=O)[C@H](CCCNC(=N)N)NC(=O)[C@H](CC(C)C)NC(=O)[C@H](Cc3c[nH]c4ccccc34)NC(=O)[C@H](CCC(=O)O)NC(=O)[C@@H](NC(=O)[C@H](CCCNC(=N)N)NC(=O)[C@H](CCC(=O)O)NC(=O)[C@H](CCSC)NC(=O)[C@H](CO)NC(=O)[C@H](CC(N)=O)NC(=O)[C@H](CC(C)C)NC(=O)[C@H](Cc3c[nH]cn3)NC(=O)[C@H](CCCCN)NC(=O)CNC(=O)[C@H](CC(C)C)NC(=O)[C@H](CC(N)=O)NC(=O)[C@H](Cc3c[nH]cn3)NC(=O)[C@H](CCSC)NC(=O)[C@H](CC(C)C)NC(=O)[C@H](CCC(N)=O)NC(=O)[C@@H](NC(=O)[C@H](CCC(=O)O)NC(=O)[C@H](CO)NC(=O)[C@@H](NC(=O)[C@@H](N)CO)C(C)C)[C@@H](C)CC)C(C)C)C(C)C)C(N)=O)C2=O)C/C1=C/C=C1\\CCC[C@]2(C)[C@@H]([C@H](C)CCCC(C)(C)O)CC[C@@H]12", "note": "(stereo partly drawn) [EXT608]", "values": [{"measurement": "half-life", "setting": "[1]", "value": "8 to 15", "unit": "h"}, {"measurement": "Kd", "setting": "[2]", "value": 5.2, "unit": "µM"}, {"measurement": "half-life", "setting": "[3]", "value": "24 to 32", "unit": "h"}]}]}
